Laboratory results taken from PMC3033577 (FEBS letters, 2004).
Each block holds one binder with its values, some of them ahead of it.

Columns and labels:
[1] = target: T1, B. stearothermophilus DnaB, main replicative ring helicase (B. stearothermophilus, UniProt Q9X4C9 1-454); experiment: SEC
T1 sequence (looked up): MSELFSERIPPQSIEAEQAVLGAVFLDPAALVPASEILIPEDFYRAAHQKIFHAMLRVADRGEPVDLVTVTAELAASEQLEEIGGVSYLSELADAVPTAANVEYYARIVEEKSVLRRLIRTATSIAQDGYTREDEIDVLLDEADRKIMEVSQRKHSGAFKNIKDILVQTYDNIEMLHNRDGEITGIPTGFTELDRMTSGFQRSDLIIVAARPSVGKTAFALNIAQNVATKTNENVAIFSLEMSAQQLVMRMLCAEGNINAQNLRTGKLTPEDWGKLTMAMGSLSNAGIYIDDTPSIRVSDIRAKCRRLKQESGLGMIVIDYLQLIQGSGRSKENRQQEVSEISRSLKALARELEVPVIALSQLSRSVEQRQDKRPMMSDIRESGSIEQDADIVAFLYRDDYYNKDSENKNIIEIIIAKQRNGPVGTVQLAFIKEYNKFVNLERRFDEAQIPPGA

DnaD [2] = target: T2, DnaD (Bacillus subtilis (strain 168 EMG50), UniProt P39787 1-232); experiment: EMSA
T2 sequence: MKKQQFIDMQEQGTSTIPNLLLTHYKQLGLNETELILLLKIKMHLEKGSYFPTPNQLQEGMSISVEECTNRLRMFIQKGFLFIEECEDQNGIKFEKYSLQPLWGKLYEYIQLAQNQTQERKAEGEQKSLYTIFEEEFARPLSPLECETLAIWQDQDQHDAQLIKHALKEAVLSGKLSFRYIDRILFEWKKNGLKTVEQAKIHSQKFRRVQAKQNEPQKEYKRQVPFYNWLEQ

DnaD [3] = target: T2, DnaD; experiment: sedimentation velocity ultracentrifugation

binding result [1]: binds
B1: B. subtilis DnaI, putative helicase loader (natural protein, UniProt P06567 1-311, looked up)
chain: MEPIGRSLQGVTGRPDFQKRLEQMKEKVMKDQDVQAFLKENEEVIDQKMIEKSLNKLYEYIEQSKNCSYCSEDENCNNLLEGYHPKLVVNGRSIDIEYYECPVKRKLDQQKKQQSLMKSMYIQQDLLGATFQQVDISDPSRLAMFQHVTDFLKSYNETGKGKGLYLYGKFGVGKTFMLAAIANELAEKEYSSMIVYVPEFVRELKNSLQDQTLEEKLNMVKTTPVLMLDDIGAESMTSWVRDEVIGTVLQHRMSQQLPTFFSSNFSPDELKHHFTYSQRGEKEEVKAARLMERILYLAAPIRLDGENRRHP

B2: 33mer oligonucleotide (radiolabeled) (ssDNA)
DNA: TGCATGCCTGCAGGTCGACTCTAGAGGATCCCC
binding result (DnaD [2]): binds

B3: 33mer oligonucleotide (5'-HEX) (ssDNA)
DNA: TGCATGCCTGCAGGTCGACTCTAGAGGATCCCC
binding result (DnaD [3]): binds
